From patent US20160017055A1 (Takeda / Millennium, published 2016)

Target: T1, plasma kallikrein Mutant 2 (catalytic domain; R551A, Q553A, Y555A, T558A, R560A) (human, UniProt P03952 391-638)
T1 construct: Mutations in a subsite of the active site (printed 'S subsite')
Experiment: Ki,app; inhibition of PKal catalytic domain activity, Morrison fit
Protocol: Briefly, PKal and a Fab at various concentrations are incubated together for 1 hour at 30° C. A substrate peptide (cleavable by PKal) is then added to this PKal-Fab mixture. The rate of substrate peptide cleavage/proteolysis is then measured, and plotted against the concentrations of the Fab. This plot is then fit to the Morrison equation, which calculates the K_{i,app} value.
The inhibitory activity of X₁₁₅-F02 against the wild-type PKal and the mutants were carried out using the method described in Example 2 above and the K_{i,app} values were determined.

T1 sequence (P03952 391-638 C503S/R551A/Q553A/Y555A/T558A/R560A limits assumed): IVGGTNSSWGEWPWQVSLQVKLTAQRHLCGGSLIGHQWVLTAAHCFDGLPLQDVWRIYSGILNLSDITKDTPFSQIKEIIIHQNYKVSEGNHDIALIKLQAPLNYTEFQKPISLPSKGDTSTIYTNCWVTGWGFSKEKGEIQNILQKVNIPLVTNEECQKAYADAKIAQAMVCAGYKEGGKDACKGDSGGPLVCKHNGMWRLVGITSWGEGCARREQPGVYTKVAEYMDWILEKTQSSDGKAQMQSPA

fold reduction of inhibitory potency (Ki,app) against wild-type PKal: ~65 fold
B1: X115-F02 (antibody, human IgG1, kappa, V domains shown)
VH: EVQLLESGGGLVQPGGSLRLSCAASGFTFSHYIMMWVRQAPGKGLEWVSGIYSSGGITVYADSVKGRFTISRDNSKNTLYLQMNSLRAEDTAVYYCAYRRIGVPRRDEFDIWGQGTMVTVSS
VL: DIQMTQSPSTLSASVGDRVTITCRASQSISSWLAWYQQKPGKAPKLLIYKASTLESGVPSRFSGSGSGTEFTLTISSLQPDDFATYYCQQYNTYWTFGQGTKVEIKR
